Measurements published in publication doi:10.1101/2022.08.09.503213 (bioRxiv, 2022).

Target: IFT140 with C-terminal TEV site and Strep-tag II (IFT140^Strep) (human, UniProt Q96RY7 1-1462)
Test: pull-down

Chain of IFT140 with C-terminal TEV site and Strep-tag II (IFT140^Strep) (Q96RY7 whole entry): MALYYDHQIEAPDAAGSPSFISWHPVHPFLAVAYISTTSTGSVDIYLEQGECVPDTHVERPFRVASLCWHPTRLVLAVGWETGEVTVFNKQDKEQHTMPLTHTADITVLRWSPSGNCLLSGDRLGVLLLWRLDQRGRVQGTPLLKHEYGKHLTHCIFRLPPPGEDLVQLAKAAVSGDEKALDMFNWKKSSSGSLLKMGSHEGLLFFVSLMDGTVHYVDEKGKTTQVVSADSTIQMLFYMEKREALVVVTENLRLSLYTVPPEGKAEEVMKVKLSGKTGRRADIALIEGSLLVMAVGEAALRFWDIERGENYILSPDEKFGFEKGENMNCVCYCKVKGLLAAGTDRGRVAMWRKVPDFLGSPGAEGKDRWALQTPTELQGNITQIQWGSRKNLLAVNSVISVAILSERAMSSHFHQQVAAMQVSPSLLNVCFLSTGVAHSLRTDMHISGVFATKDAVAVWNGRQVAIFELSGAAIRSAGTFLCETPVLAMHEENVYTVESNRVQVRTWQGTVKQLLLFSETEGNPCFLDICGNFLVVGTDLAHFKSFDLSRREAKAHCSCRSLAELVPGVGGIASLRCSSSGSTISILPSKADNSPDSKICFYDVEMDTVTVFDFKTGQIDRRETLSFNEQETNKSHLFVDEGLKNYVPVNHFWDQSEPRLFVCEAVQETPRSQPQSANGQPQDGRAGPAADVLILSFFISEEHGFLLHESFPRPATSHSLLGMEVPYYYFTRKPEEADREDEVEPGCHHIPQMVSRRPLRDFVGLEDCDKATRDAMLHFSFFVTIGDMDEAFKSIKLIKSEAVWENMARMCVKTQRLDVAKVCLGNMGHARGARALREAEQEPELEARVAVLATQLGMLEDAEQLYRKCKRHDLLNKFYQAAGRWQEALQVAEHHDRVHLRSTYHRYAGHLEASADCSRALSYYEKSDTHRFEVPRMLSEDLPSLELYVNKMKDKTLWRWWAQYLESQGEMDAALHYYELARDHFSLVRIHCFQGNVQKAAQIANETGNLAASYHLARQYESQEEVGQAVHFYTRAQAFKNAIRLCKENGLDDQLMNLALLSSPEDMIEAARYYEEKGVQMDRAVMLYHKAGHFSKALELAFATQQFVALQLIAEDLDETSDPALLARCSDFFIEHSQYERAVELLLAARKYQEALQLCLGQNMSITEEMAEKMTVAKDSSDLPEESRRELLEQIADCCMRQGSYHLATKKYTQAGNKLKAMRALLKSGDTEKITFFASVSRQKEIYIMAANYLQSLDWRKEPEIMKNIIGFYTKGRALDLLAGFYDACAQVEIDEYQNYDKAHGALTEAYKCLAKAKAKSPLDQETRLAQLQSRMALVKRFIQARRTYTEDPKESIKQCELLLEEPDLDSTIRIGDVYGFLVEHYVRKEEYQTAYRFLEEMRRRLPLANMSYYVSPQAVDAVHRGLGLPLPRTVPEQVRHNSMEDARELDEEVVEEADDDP

binding result: binds
B1: IFT144 with C-terminal TEV site and FLAG tag (IFT144^FLAG) (natural protein, human, UniProt Q8NEZ3 1-1342, looked up)
chain: MKRIFSLLEKTWLGAPIQFAWQKTSGNYLAVTGADYIVKIFDRHGQKRSEINLPGNCVAMDWDKDGDVLAVIAEKSSCIYLWDANTNKTSQLDNGMRDQMSFLLWSKVGSFLAVGTVKGNLLIYNHQTSRKIPVLGKHTKRITCGCWNAENLLALGGEDKMITVSNQEGDTIRQTQVRSEPSNMQFFLMKMDDRTSAAESMISVVLGKKTLFFLNLNEPDNPADLEFQQDFGNIVCYNWYGDGRIMIGFSCGHFVVISTHTGELGQEIFQARNHKDNLTSIAVSQTLNKVATCGDNCIKIQDLVDLKDMYVILNLDEENKGLGTLSWTDDGQLLALSTQRGSLHVFLTKLPILGDACSTRIAYLTSLLEVTVANPVEGELPITVSVDVEPNFVAVGLYHLAVGMNNRAWFYVLGENAVKKLKDMEYLGTVASICLHSDYAAALFEGKVQLHLIESEILDAQEERETRLFPAVDDKCRILCHALTSDFLIYGTDTGVVQYFYIEDWQFVNDYRHPVSVKKIFPDPNGTRLVFIDEKSDGFVYCPVNDATYEIPDFSPTIKGVLWENWPMDKGVFIAYDDDKVYTYVFHKDTIQGAKVILAGSTKVPFAHKPLLLYNGELTCQTQSGKVNNIYLSTHGFLSNLKDTGPDELRPMLAQNLMLKRFSDAWEMCRILNDEAAWNELARACLHHMEVEFAIRVYRRIGNVGIVMSLEQIKGIEDYNLLAGHLAMFTNDYNLAQDLYLASSCPIAALEMRRDLQHWDSALQLAKHLAPDQIPFISKEYAIQLEFAGDYVNALAHYEKGITGDNKEHDEACLAGVAQMSIRMGDIRRGVNQALKHPSRVLKRDCGAILENMKQFSEAAQLYEKGLYYDKAASVYIRSKNWAKVGDLLPHVSSPKIHLQYAKAKEADGRYKEAVVAYENAKQWQSVIRIYLDHLNNPEKAVNIVRETQSLDGAKMVARFFLQLGDYGSAIQFLVMSKCNNEAFTLAQQHNKMEIYADIIGSEDTTNEDYQSIALYFEGEKRYLQAGKFFLLCGQYSRALKHFLKCPSSEDNVAIEMAIETVGQAKDELLTNQLIDHLLGENDGMPKDAKYLFRLYMALKQYREAAQTAIIIAREEQSAGNYRNAHDVLFSMYAELKSQKIKIPSEMATNLMILHSYILVKIHVKNGDHMKGARMLIRVANNISKFPSHIVPILTSTVIECHRAGLKNSAFSFAAMLMRPEYRSKIDAKYKKKIEGMVRRPDISEIEEATTPCPFCKFLLPECELLCPGCKNSIPYCIATGRHMLKDDWTVCPHCDFPALYSELKIMLNTESTCPMCSERLNAAQLKKISDCTQYLRTEEEL
